From the supplement of paper PMC7125110
± gives the standard error. Fewer inactive variants are shown than the library holds.

B1: glmS ribozyme (parent)
chain: AUAAAAGCGCCAGAACUACAGAAAUGUAGUUGACGAGGAGGAGGUUUAUCGAAUUUUCGGCGGAUGCCUCCAAA

Variants of: B1
Test: self-cleavage kobs at 2500 uM GlcN6P; higher = faster cleavage; RNA array
Conditions: with glucosamine-6-phosphate
Procedure, shortened: (§1)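 Weighted Michaelis–Menten fits across concentrations supplied kcat and KM, based on kobs from one- or two-exponential decay fits to normalised per-tile medians. The data came from barcoded ribozyme variants transcribed in situ by E. coli RNA polymerase on sequenced MiSeq chips and tracked at 37 °C by a hybridised Cy3 probe. Glucosamine-6-phosphate (40 μM to 10 mM) in HEPES/KCl/Mg(OAc)2 buffer was flowed in.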

Point of comparison: A14G A42G G44A U55G, “self-cleavage kobs at 2500 uM GlcN6P” value 0.000136 ± 4.1e-05 s⁻¹. Against it:
- A12U A33U G40U — 3.7-fold lower, 3.71e-05 ± 1.4e-05 s⁻¹
- A14U G32C A52U — lower, < 1e-05 s⁻¹
- A5U C10G A42U U57C C70A — lower, < 1e-05 s⁻¹
- G7C A36G G37C U56A G66A — lower, < 1e-05 s⁻¹
- A12C U55A C58A — within error, 8.77e-05 ± 1.8e-05 s⁻¹
- G7U U46G A48U — lower, < 1e-05 s⁻¹
- C8U C34U G37A U54C — lower, < 1e-05 s⁻¹
- A33G G35A G44U G59C C70U — lower, < 1e-05 s⁻¹
- G7C A14C G35C U57G — lower, < 1e-05 s⁻¹
- G7C A14U G32U A36G G43C — lower, < 1e-05 s⁻¹
- A33C G40A A52U C61G — lower, < 1e-05 s⁻¹
- G7A C10U G35U G43U — lower, < 1e-05 s⁻¹
- C10G A14U G32U C61A G63A — lower, < 1e-05 s⁻¹
- G13C C71U — within error, 9.01e-05 ± 1.5e-05 s⁻¹
- U30A U49C G66C — lower, < 1e-05 s⁻¹
- C11U G44U C67G — 31-fold higher, 0.00425 ± 0.0019 s⁻¹
- C19A C34A — lower, < 1e-05 s⁻¹
- G9C U49A U54A C67A — lower, < 1e-05 s⁻¹
- G13A C50A U69A — 3.5-fold lower, 3.87e-05 ± 1.8e-05 s⁻¹
- A6C A36U G37C A39U — lower, < 1e-05 s⁻¹
- C8G A14G G32U A64U — lower, < 1e-05 s⁻¹
- A15G U45C U65G — within error, 0.000117 ± 3.1e-05 s⁻¹
- G29C G62C U65A — lower, < 1e-05 s⁻¹
- G32C C58U U65G — lower, < 1e-05 s⁻¹
- G32C A42G G59U — lower, < 1e-05 s⁻¹
- C11A C16U U54G G59A — within error, 0.000138 ± 3e-05 s⁻¹
- A15C G35U C70G — lower, < 1e-05 s⁻¹
- A14G A15U U46C — 12-fold higher, 0.00169 ± 0.00048 s⁻¹
- G13C G40A G60U — lower, < 1e-05 s⁻¹
- G9C A33C A48G U54G — lower, < 1e-05 s⁻¹
- C8U U57G C71G — lower, < 1e-05 s⁻¹
- A14G U56G C71U — 340-fold higher, 0.0458 ± 0.019 s⁻¹
- U31G G32C G66A — within error, 0.000109 ± 2.1e-05 s⁻¹
- G32C A36C A39U U69G — lower, < 1e-05 s⁻¹
- C11A G32A G43C U46A C50A G60A — lower, < 1e-05 s⁻¹
- C11U U30A G37C U49A — lower, < 1e-05 s⁻¹
- A12U U30G U49C — lower, < 1e-05 s⁻¹
- C16A G43A C58U — lower, < 1e-05 s⁻¹
- A39C U45A C50G C70G — lower, < 1e-05 s⁻¹
- U31G A48U A52C — lower, < 1e-05 s⁻¹
- G13A G35A A42U — lower, < 1e-05 s⁻¹
- G9U A12C U30C — lower, < 1e-05 s⁻¹
- G9C C16A C34A G44C A64G — lower, < 1e-05 s⁻¹
- A6G A33G A42U G60U — lower, < 1e-05 s⁻¹
- C11U A14G U49C — lower, < 1e-05 s⁻¹
- C11A G29U A33C G63C — lower, < 1e-05 s⁻¹
- A39G U57A C61A — lower, < 1e-05 s⁻¹
- A14U A42C U54A — lower, < 1e-05 s⁻¹
- C8U C11U U30A A52C U69G — lower, < 1e-05 s⁻¹
- G43U U54A C58U G59C C61G G62C A64G U65A G66U — lower, < 1e-05 s⁻¹
- U31C A64C U65G — lower, < 1e-05 s⁻¹
- A39C G43U A48U G51U — lower, < 1e-05 s⁻¹
- A6C G40A U46G G51U — lower, < 1e-05 s⁻¹
- G35U G66U C70U — lower, < 1e-05 s⁻¹
- C8A G37A G41U A48U C50G U55A — lower, < 1e-05 s⁻¹
- G38U U57A G60C G66U — lower, < 1e-05 s⁻¹
- G32U A33U G41U — lower, < 1e-05 s⁻¹
- A6U A14U A33G C61U — lower, < 1e-05 s⁻¹
- A6C G9U C70A — lower, < 1e-05 s⁻¹
- A15G A36U G43C — lower, < 1e-05 s⁻¹
- C11U C16G C70G — 2.4-fold lower, 5.75e-05 ± 2.7e-05 s⁻¹
- G40C G41U C71A — 2.8-fold lower, 4.86e-05 ± 1.8e-05 s⁻¹
- G7C G44C C50U G62A C67U C70U — lower, < 1e-05 s⁻¹
- U45C A48U U65A — lower, < 1e-05 s⁻¹
- A33G A53U G60U C71G — lower, < 1e-05 s⁻¹
- G40C G66C — 6.1-fold higher, 0.000833 ± 0.00021 s⁻¹
- A14G U45G C71U — 15-fold higher, 0.0021 ± 0.0006 s⁻¹
- A6U U30A A33C U45G C58A — lower, < 1e-05 s⁻¹
- G9A C61A A64U C67A — lower, < 1e-05 s⁻¹
- G13A U47A G66A — within error, 0.000103 ± 2.2e-05 s⁻¹
- U30A G41U U55G G59A U69A — lower, < 1e-05 s⁻¹
- U56A G63U — lower, < 1e-05 s⁻¹
- G13U A42C U47C U57C — lower, < 1e-05 s⁻¹
- G29U U46A U56A G62U C68U — lower, < 1e-05 s⁻¹
- G51U U54G C61U — lower, < 1e-05 s⁻¹
- C11U G40A U46A G59C — lower, < 1e-05 s⁻¹
- G41U G44C U55G G59U — lower, < 1e-05 s⁻¹
- A36U G63A — lower, < 1e-05 s⁻¹

Variants of: B1
Test: self-cleavage kobs at 10000 uM GlcN6P; higher = faster cleavage; RNA array
Conditions: with glucosamine-6-phosphate
Procedure, shortened: as §1

Point of comparison: G13C C71U, “self-cleavage kobs at 10000 uM GlcN6P” value 0.000149 ± 1.6e-05 s⁻¹. Against it:
- G32C A36C A39U U69G — lower, < 1e-05 s⁻¹
- A6C G9U C70A — lower, < 1e-05 s⁻¹
- C11U C16G C70G — within error, 0.000142 ± 4.4e-05 s⁻¹
- G40C G41U C71A — within 1.5-fold, 0.000104 ± 1.6e-05 s⁻¹
- U45C A48U U65A — lower, < 1e-05 s⁻¹
- G40C G66C — 3.6-fold higher, 0.000531 ± 6.3e-05 s⁻¹
- G13A U47A G66A — within error, 0.000143 ± 2.8e-05 s⁻¹
- G13U A42C U47C U57C — lower, < 1e-05 s⁻¹
